In patent publication US12216128B2, “Methods for guiding therapy decisions in seizure disorders” (Mayo Foundation for Medical Education and Research, priority 2018, dated 2025):

Legend:
children with FIRES = conditions: Kenney-Jung et al. 2016; cited from earlier work
human IL-1R = molecular target: T1, human IL-1R (Homo sapiens, UniProt P14778); test: HEK-Blue IL1R cell-based IL-1R signaling reporter assay (SEAP, Quanti-Blue, absorbance 655 nm)
T1 construct: Human embryonic kidney (HEK) cells expressing murine and human IL-1 receptor proteins; host or cells: HEK-Blue IL1R (HEK293-derived reporter cells)
T1 sequence (P14778 18-569): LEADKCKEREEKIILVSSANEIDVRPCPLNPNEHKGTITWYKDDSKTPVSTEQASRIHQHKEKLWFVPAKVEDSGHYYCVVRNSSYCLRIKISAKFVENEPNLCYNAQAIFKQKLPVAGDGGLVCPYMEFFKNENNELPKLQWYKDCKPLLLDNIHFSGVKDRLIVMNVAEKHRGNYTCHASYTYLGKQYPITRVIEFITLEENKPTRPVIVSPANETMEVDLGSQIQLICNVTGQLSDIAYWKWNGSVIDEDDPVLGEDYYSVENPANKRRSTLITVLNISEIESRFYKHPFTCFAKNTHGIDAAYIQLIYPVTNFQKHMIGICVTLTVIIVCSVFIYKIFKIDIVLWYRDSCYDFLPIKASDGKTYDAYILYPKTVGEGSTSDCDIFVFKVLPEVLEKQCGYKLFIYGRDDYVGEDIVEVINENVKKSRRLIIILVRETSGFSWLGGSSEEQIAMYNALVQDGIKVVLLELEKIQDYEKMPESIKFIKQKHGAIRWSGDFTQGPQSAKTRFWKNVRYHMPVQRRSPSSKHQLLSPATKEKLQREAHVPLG
Experimental: HEK-Blue IL1R cells: Human embryonic kidney (HEK) cells expressing murine and human IL-1 receptor proteins, as well as expressing secreted embryonic alkaline phosphatase under NF-kB/AP1 transcriptional control (HEK-Blue IL1R, InvivoGen), were maintained in DMEM with 10% FBS, 2 mM glutamine, 50 U/mL penicillin, 50 μg/ml streptomycin, 100 μg/ml Normocin, 200 μg/mL hygromicin B, 1 μg/mL puromycin, and 100 μg/ml Zeocin. Heat inactivated human serum tested negative for background alkaline phosphatase activity. In initial experiments, HEK-Blue IL1R cells were treated for 24 hours with 0-100 ng/mL recombinant human IL-1β (Peprotech) in the presence of 0-200 ng/mL anakinra. In subsequent experiments, cells were treated with 32 pg/mL IL-1β for all conditions. After 3 hours, saturating concentrations (10 μg/mL) of anakinra were added to the cells to block further IL-1R signaling, and endpoint supernatants were collected at 24 hours. Supernatants (20-40 μL) were mixed with prewarmed QUANTI-Blue reagent (160 μL, InvivoGen) and incubated at 37° C. in a Spectramax M3 multi-mode microplate reader (Molecular Devices). Absorbance at 655 nm was recorded every 5 minutes for 3 hours via kinetic read. The basal absorbance of untreated HEK-Blue IL-1R cell supernatant was subtracted from all samples to normalize for non-specific signal.
Given that both IL-1β and IL-1RA were elevated in FIRES patient serum, experiments were conducted to determine whether the elevation translated into a change in overall IL-1R signaling activity. To develop a sensitive functional measurement of IL-1R signaling activity, a cell based assay using HEK-Blue IL1R cells was developed and optimized. These cells express human IL-1R and respond to IL-1R signaling-induced NFκB activity by producing secreted embryonic alkaline phosphatase (SEAP), which dose-dependently results in increased absorbance of 655 nm wavelength light upon incubation with Quanti-Blue substrate (FIG. 2A).
To investigate this possibility, the antagonistic activity of FIRES patient CSF-derived IL-1RA was assessed using an in vitro HEK-Blue IL1R cell-based assay. […] Thus, HEK-Blue IL1R cells were treated with 32 pg/mL IL-1β in the presence of either 50% dialyzed FIRES patient CSF containing 65 pM patient IL-1RA or 50% dialyzed CSF derived from NPH patients that was supplemented with recombinant IL-1RA prior to dialysis to reach concentrations of IL-1RA equimolar to that seen in FIRES patient CSF. The percent inhibition of IL-1R-induced SEAP was then compared in cells treated with 50% CSF containing 65 pM FIRES patient IL-1RA vs. 50% CSF containing 65 pM anakinra.

[1] = IL-1RA ELISA in FIRES patient serum and CSF before and after initiation of anakinra treatment; type: in vivo, human; conditions: detects the exogenous IL-1RA
Experimental: IL-1RA enzyme-linked immunosorbent assay: The human IL-1RA/IL1F3 Quantikine ELISA kit (R&D Systems) was used according to the manufacturer's instructions. Serum and CSF samples were diluted (1:2-1:5000 in assay diluent) and duplicate samples were measured against a standard curve (31.3-2000 pg/mL in duplicate). After chromogen development, absorbance was measured on a Spectramax M3 multi-mode microplate reader (Molecular Devices). Absorbances falling outside the range of the standard curve were reanalyzed at different dilutions.
To determine whether there was a diminished level of endogenous IL-1RA in FIRES patient serum or CSF, IL-1RA levels were measured by enzyme-linked immunosorbent assay (ELISA) in FIRES patient serum and CSF before and after initiation of anakinra treatment, as well as in serum from healthy controls, CSF from normal pressure hydrocephalus patients, and serum and CSF from patients with other seizure disorders. […] IL-1RA was strongly elevated in FIRES CSF compared to normal pressure hydrocephalus controls and patients with ESES or focal epilepsy (FIG. 1C). CSF IL-1β levels, which were only rarely detectable in healthy controls, were also elevated in among FIRES patients (FIG. 1D). […] This finding also was consistent with reports of elevated IL-1RA following seizure activity (Lehtimaki et al., Neuroimmunomodulation 17(1):19-22, 2010).

suppression of the measured increase in IL-1R activity elicited by serum plus IL-1β (human IL-1R; 32 pg/mL IL-1β in the presence of 10% serum (HC, FE, FIRES, ESES), all conditions, FIG. 3E): at least partially suppressed | IL-1R signaling in IL-1β treated HEK cells compared to unsupplemented NPH CSF (human IL-1R; 32 pg/mL IL-1β, 50% dialyzed NPH CSF supplemented with 65 pM, FIG. 5B): significantly less IL-1R signaling | inhibition of IL-1R signaling in dialyzed CSF (human IL-1R; CSF dialyzed against DMEM/F12, 100 Dalton cut off membrane, FIG. 4D): restored anakinra-mediated inhibition | blockade of IL-1β-induced IL-1R signaling (SEAP) (human IL-1R; HEK-Blue IL1R cells, co-treatment with IL-1β, FIG. 2B): competitively blocked
Substance: anakinra: recombinantly-produced human IL-1RA
clinical response of seizure disorder (children with FIRES): some children with FIRES respond | inhibition of IL-1R signaling in undialyzed CSF (human IL-1R; media containing 50% control CSF or artificial CSF, compared to complete media, FIGS. 4A-4C): did not show inhibition of IL-1R signaling | CSF level of IL-1RA following treatment ([1]; FIRES patient CSF): further increased | serum level of IL-1RA following treatment ([1]; FIRES patient serum): further increased
